Among the data in PMC11221534, “A minimal RNA substrate with dual fluorescent probes enables rapid kinetics and provides insight into bacterial RNase P active site interactions” are Kd values, retold here.

In data set [1] the target is T1, E. coli RNase P holoenzyme, P RNA C70U (Escherichia coli, UniProt P0A7Y8 1-119).
T1 sequence: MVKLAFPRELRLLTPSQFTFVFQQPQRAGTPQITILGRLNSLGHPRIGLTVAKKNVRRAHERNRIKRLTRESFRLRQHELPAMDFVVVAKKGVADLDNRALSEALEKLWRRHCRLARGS
In words: single-turnover kinetics by PAGE (K'); 17.5 mM Mg2+; imprecise, very slow cleavage; 50 mM MES pH 6, 100 mM NaCl, 17.5 mM MgCl2 (or CaCl2), 0.015% Triton X-100 reduced, 37 C (PAGE single turnover); stopped-flow in similar buffer. Conditions: protein: recombinant; label: 5' Cy3 on strand 1; 12 bp continuous helix with one U-G wobble; 5' overhang 9 nt, 3' overhang 4 nt (GCCA).

Data set [2] has as its target T2, E. coli RNase P holoenzyme, P RNA U69A (Escherichia coli, UniProt P0A7Y8 1-119).
T2 sequence: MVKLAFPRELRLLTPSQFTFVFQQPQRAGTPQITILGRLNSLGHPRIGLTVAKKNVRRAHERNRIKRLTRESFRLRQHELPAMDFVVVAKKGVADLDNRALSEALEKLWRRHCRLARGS
The data set is described as above. Conditions: protein: recombinant; label: 5' Cy3 on strand 1; 12 bp continuous helix with one U-G wobble; 5' overhang 9 nt, 3' overhang 4 nt (GCCA).

Data set [3] deals with T3, E. coli RNase P holoenzyme (C5 protein + P RNA), wild type (Escherichia coli, UniProt P0A7Y8 1-119).
T3 sequence: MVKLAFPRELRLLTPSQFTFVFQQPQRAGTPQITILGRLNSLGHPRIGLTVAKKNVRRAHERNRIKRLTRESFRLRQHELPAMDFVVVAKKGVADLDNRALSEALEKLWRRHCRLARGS
In words: single-turnover kinetics by PAGE (K' from kobs vs [E]); 17.5 mM Mg2+, pH 6; K' approximates Kd; 50 mM MES pH 6, 100 mM NaCl, 17.5 mM MgCl2 (or CaCl2), 0.015% Triton X-100 reduced, 37 C (PAGE single turnover); stopped-flow in similar buffer. The following applies: protein: recombinant; label: 5' Cy3 on strand 1; 12 bp continuous helix with one U-G wobble; 5' overhang 9 nt, 3' overhang 4 nt (GCCA).

Data set [4] concerns the target T3, E. coli RNase P holoenzyme (C5 protein …). The experiment in a line: stopped-flow 2Ap fluorescence, global fit (k-1/k1); 17.5 mM Mg2+; k1 0.43e6 M-1 s-1, k-1 0.084 s-1; 50 mM MES pH 6, 100 mM NaCl, 17.5 mM MgCl2 (or CaCl2), 0.015% Triton X-100 reduced, 37 C (PAGE single turnover); stopped-flow in similar buffer. The following applies: protein: recombinant; label: 2-aminopurine; 12 bp continuous helix with one U-G wobble; 5' overhang 9 nt, 3' overhang 4 nt (GCCA).

B1: 5'Cy3-MD1 (dsRNA)
RNA 1: ACCCAAAAUGGUCCGGGCGGG
RNA 2: CCCGUCCGGACCGCCA
modifications: 2-aminopurine at position 8 (N-2) as printed, written A; Table 1 appears to swap the Cy3 between 5'Cy3-MD1 and 5'Ap(-2)-MD1
By Kd is commonly meant the equilibrium constant for the complex coming apart. For B1, the dissociation constant (Kd) is below 250 nM in data set [1], below 250 nM in data set [2] and 189 nM in data set [3].

B2: 5'Ap(-2)-MD1 (dsRNA)
RNA 1: ACCCAAAAUGGUCCGGGCGGG
RNA 2: CCCGUCCGGACCGCCA
modifications: 2-aminopurine at position 8 (N-2), written A; Table 1 prints a 5' Cy3 (apparently swapped with 5'Cy3-MD1)
Take B2: in data set [4], the dissociation constant (Kd) came to 195 nM.
